In patent US12281147 (dated 2025):

Molecular target: IL-21_mouse_WT Fc fusion protein (mouse; human, UniProt Q9ES17 18-146)
Assay: BLI

Kd [nM] | Binder
6.38 | recombinant human IL-21R His tag (Acro Biosystems) (receptor, not shown: small tags and cut ends) not shown
5.08 | mouse IL-21R, His-tagged (BLI antigen) (receptor, not shown: small tags and cut ends) not shown
